Drawing on patent US20140271675A1 (Eli Lilly, published 2014), this text covers OD560 (bound biotinylated VEGF-A) and OD560 (bound biotinylated PlGF) for one substance.

Assay [1] concerns the target hVEGFR1-Fc (R&D 321-fl 050/cf) (human) (UniProt P17948). Briefly: competition ELISA, coated hVEGFR1-Fc, competitor biotin-hVEGFA-165 2 nM; control Ron antibody 1.6667 µg/ml. (In general: ELISA stands for enzyme-linked immunosorbent assay.)
For assay [2] the target is unchanged. Briefly: competition ELISA, coated hVEGFR1-Fc, competitor biotin-hPLGF1 2 nM; control Ron antibody 0.617 µg/ml.
Assay [3] has the same target. Briefly: competition ELISA, coated hVEGFR1-Fc, competitor biotin-hVEGFA-165 2 nM; control Ron antibody 0.206 µg/ml.
The target is the same in assay [4]. Briefly: competition ELISA, coated hVEGFR1-Fc, competitor biotin-hPLGF1 4 nM; control Ron antibody 0.0206 µg/ml.
Assay [5] has the same target. Briefly: competition ELISA, coated hVEGFR1-Fc, competitor biotin-hVEGFA-165 2 nM; control Ron antibody 0.0069 µg/ml.
For assay [6] the target is unchanged. Briefly: competition ELISA, coated hVEGFR1-Fc, competitor biotin-hPLGF1 2 nM; control Ron antibody 0.206 µg/ml.
For assay [7] the target is unchanged. As to the kind of experiment: competition ELISA, coated hVEGFR1-Fc, competitor biotin-hVEGFA-165 2 nM; control Ron antibody 0.023 µg/ml.
Assay [8] shares this target. Briefly: competition ELISA, coated hVEGFR1-Fc, competitor biotin-hPLGF1 2 nM; control Ron antibody 0.023 µg/ml.

Sequence of hVEGFR1-Fc (R&D 321-fl 050/cf) (human) (P17948 27-758): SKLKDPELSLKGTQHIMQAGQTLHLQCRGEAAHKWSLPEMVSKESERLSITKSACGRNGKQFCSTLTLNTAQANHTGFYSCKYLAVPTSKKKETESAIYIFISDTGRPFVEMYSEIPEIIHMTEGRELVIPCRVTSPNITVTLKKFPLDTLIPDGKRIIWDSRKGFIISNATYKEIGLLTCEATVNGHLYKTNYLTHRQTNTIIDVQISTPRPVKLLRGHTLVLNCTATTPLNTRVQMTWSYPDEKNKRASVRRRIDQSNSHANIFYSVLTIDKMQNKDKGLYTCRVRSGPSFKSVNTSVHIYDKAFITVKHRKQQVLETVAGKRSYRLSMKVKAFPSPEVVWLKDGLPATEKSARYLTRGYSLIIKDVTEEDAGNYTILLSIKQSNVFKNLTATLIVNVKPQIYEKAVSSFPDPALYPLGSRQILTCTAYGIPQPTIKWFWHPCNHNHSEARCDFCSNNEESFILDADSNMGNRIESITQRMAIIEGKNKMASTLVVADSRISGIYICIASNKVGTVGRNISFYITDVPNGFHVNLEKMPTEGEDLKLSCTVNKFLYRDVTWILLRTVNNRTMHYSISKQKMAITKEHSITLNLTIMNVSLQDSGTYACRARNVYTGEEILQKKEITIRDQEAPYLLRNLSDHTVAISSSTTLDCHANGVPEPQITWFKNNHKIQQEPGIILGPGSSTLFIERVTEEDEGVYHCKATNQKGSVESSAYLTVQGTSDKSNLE

With control Ron antibody (R&D MAB691), the OD560 (bound biotinylated VEGF-A) in assay [1] came out at 1.42 OD; in assay [3], 0.554 OD; in assay [5], 1.53 OD; in assay [7] it was 0.506 OD. Moreover, the OD560 (bound biotinylated PlGF) turned out to be 0.295 OD in assay [2], 0.389 OD in assay [4], 0.315 OD in assay [6] and 0.296 OD in assay [8].
